Measured values reported in article PMC4834876.

Biological target: F-actin (filamentous actin) from rabbit muscle (rabbit), P68135
Test: co-sedimentation
Conditions: remark: other sources report otherwise

percent co-pelleted (with APC-C1 added): 50%
B1: EB1 full-length (end-binding protein 1), wild type, Q15691 1-268 (natural protein)
chain: MAVNVYSTSVTSDNLSRHDMLAWINESLQLNLTKIEQLCSGAAYCQFMDMLFPGSIALKKVKFQAKLEHEYIQNFKILQAGFKRMGVDKIIPVDKLVKGKFQDNFEFVQWFKKFFDANYDGKDYDPVAARQGQETAVAPSLVAPALNKPKKPLTSSSAAPQRPISTQRTAAAPKAGPGVVRKNPGVGNGDDEAAELMQQVNVLKLTVEDLEKERDFYFGKLRNIELICQENEGENDPVLQRIVDILYATDEGFVIPDEGGPQEEQEEY
